Source: patent US20190218479A1, “Stabilized Liquid Peroxide Compositions” (Novozymes A/S, priority 2016, published 2019)

Key:
Assay type in all cases: physicochemical
Subtilisin1 [1] = target: T1, Subtilisin1 (Lederbergia lenta, UniProt P29600, M216S); assay: Residual activity of Subtilisin1 after storage in peroxide model detergents with or without subtilisin stabilizers (N,N-dimethylcasein/TNBS)
[2] = Stability of Subtilisin1 and Subtilisin2 in the liquid peroxide composition of Table 1 (residual protease activity, N,N-dimethylcasein/TNBS); conditions: for % Subtilisin residual activity after 4 weeks: liquid peroxide composition in Table 1 (0.8% H2O2, pH 7.0)
Method: (§1) The compositions were prepared as shown in the examples and samples stored in closed vials for storage. Residual activity was measured by comparing activity in a stored sample at the time of taken out of incubation without freezing and comparing activity to a freshly prepared sample without peroxide and dividing activity in the stored sample with activity in the fresh sample.
(§2) Activity analysis is performed by analysing protease activity by hydrolysis of N,N-dimethylcasein to produce a carboxylic acid and a primary amine compounds. The primary amines that are formed react, under alkaline conditions, with tri-nitrobenzenesulfonic acid (TNBS) to form a colored complex. The amount of colored complex that forms over the fixed reaction period at a constant temperature (530 seconds at 40° C.; complex absorbance is measured at 405 nm) is related to the amount of active protease present in the sample. The amount of colored product complex produced is compared to a standard curve based on known protease concentrations to calculate the amount of active protease in the detergent sample. The amount of protease activity at a specific time point is compared to the t=0 activity level to calculate the % active protease remaining.

Subtilisin1 [3] = target: T1, Subtilisin1; assay: Residual activity of Subtilisin1 after storage in peroxide model detergents with or without subtilisin stabilizers (N,N-dimethylcasein/TNBS); remark: listed apart in the source
Source text: Chemicals used as buffers and substrates were commercial products of at least reagent grade. Subtilisin1 has the amino acid sequence as shown in SEQ ID NO: 2, which is a subtilisin having a M216 substitution according to the invention. Subtilisin2 has the amino acid sequence as shown in SEQ ID NO: 1, which is a reference subtilisin not covered by the invention. The stock solution of each subtilisin contains 4.4% w/w of active enzyme protein. Stabilizer1: Cbz-Gly-Ala-Tyr-H (C-terminal aldehyde), wherein Cbz is benzyloxycarbonyl; which is a subtilisin stabilizer according to the invention. When used in the examples below, Stabilizer1 was added to the subtilisin stock solution at a concentration of 0.28% w/w. Stabilizer2: Cbz-Gly-Ala-NHCH(CH2C6H4pOH)CH(OH)(OSO3)Na (hydrosulfite adduct of a C-terminal aldehyde) wherein Cbz is benzyloxycarbonyl; which is a subtilisin stabilizer according to the invention. When used in the examples below, Stabilizer2 was added to the subtilisin stock solution at a concentration of 0.35% w/w. Stabilizer3: MeOCO-Val-Ala-Leu-H (C-terminal aldehyde). When used in the examples below, Stabilizer3 was added to the subtilisin stock solution at a concentration of 0.28% w/w. Stabilizer4: 4-formyl-phenyl-boronic acid (4-FPBA); which is a reference protease stabilizer not covered by the invention. When used in the examples below, Stabilizer4 was added to the subtilisin stock solution at a concentration of 3.4% w/w.
as §1, §2
This study examined Subtilisin1 stability in the presence of hydrogen peroxide, with and without subtilisin stabilizers (Stabilizer4 and Stabilizer2) in two different model detergents at pH 7 and 9.

[4] = Residual hydrogen peroxide after storage, permanganate titration
Method: Residual hydrogen peroxide (H2O2) was measured by permanganate titration (reduction of potassium permanganate by hydrogen peroxide in sulfuric acid).

B1: Subtilisin1: subtilisin with amino acid sequence SEQ ID NO: 2, having a M216 substitution according to the invention (protein)
chain: AQSVPWGISRVQAPAAHNRGLTGSGVKVAVLDTGISTHPDLNIRGGASFVPGEPSTQDGNGHGTHVAGTIAALNNSIGVLGVAPSAELYAVKVLGASGSGSVSSIAQGLEWAGNNGMHVANLSLGSPSPSATLEQAVNSATSRGVLVVAASGNSGAGSISYPARYANAMAVGATDQNNNRASFSQYGAGLDIVAPGVNVQSTYPGSTYASLNGTSSATPHVAGAAALVKQKNPSWSNVQIRNHLKNTATSLGSTNLYGSGLVNAEAATR
modifications: Variant of SEQ ID NO 1
Residual activity after storage for 2 weeks at 30° C. (Subtilisin1 [1]; Subtilisin1 in “Mix Laundry” (Table 19, pH 7.5) no H2O2, no sodium salicylate, no polyDADMAC): 73%
Residual activity after storage for 2 weeks at 30° C. (Subtilisin1 [1]; Subtilisin1 in “Mix Laundry” (Table 19, pH 7.5) with 1% H2O2, with sodium salicylate, with polyDADMAC): 42%
Residual activity after storage for 2 weeks at 37° C. (Subtilisin1 [1]; Subtilisin1 in “NI pretreat” (Table 19, pH 7.0) with 1% H2O2, with sodium salicylate, with polyDADMAC): 38%
Residual activity after storage for 2 weeks at 37° C. (Subtilisin1 [1]; Subtilisin1 in “NI pretreat” (Table 19, pH 7.0) without H2O2, no sodium salicylate, no polyDADMAC): 82%
% Subtilisin residual activity after 4 weeks ([2]; 22° C.): 81%
% Subtilisin residual activity after 4 weeks ([2]; 30° C.): 61%
% Subtilisin residual activity after 4 weeks ([2]; 37° C.): 46%
stability in the liquid peroxide composition, compared with Subtilisin2 ([2]; liquid peroxide composition in Table 1, summary of Table 2): much better
Residual activity of Subtilisin1 after storage (Subtilisin1 [3]; liquid nonionic laundry detergent in Table 7 (1.0% H2O2), 22° C., pH 7): 63%
Residual activity of Subtilisin1 after storage (Subtilisin1 [3]; liquid nonionic laundry detergent in Table 7 (1.0% H2O2), 22° C., pH 9): 75%
Residual activity of Subtilisin1 after storage (Subtilisin1 [3]; liquid nonionic laundry detergent in Table 7 (1.0% H2O2), 30° C., pH 7): 47%
Residual activity of Subtilisin1 after storage (Subtilisin1 [3]; liquid nonionic laundry detergent in Table 7 (1.0% H2O2), 30° C., pH 9): 68%
Residual activity of Subtilisin1 after storage (Subtilisin1 [3]; liquid nonionic laundry detergent in Table 7 (1.0% H2O2), 37° C., pH 7): 30%
Residual activity of Subtilisin1 after storage (Subtilisin1 [3]; liquid nonionic laundry detergent in Table 7 (1.0% H2O2), 37° C., pH 9): 45%
Residual activity of Subtilisin1 after storage (Subtilisin1 [3]; liquid nonionic pretreatment detergent in Table 4 (1.0% H2O2), 22° C., pH 7): 85%
Residual activity of Subtilisin1 after storage (Subtilisin1 [3]; liquid nonionic pretreatment detergent in Table 4 (1.0% H2O2), 22° C., pH 9): 40%
Residual activity of Subtilisin1 after storage (Subtilisin1 [3]; liquid nonionic pretreatment detergent in Table 4 (1.0% H2O2), 30° C., pH 7): 65%
Residual activity of Subtilisin1 after storage (Subtilisin1 [3]; liquid nonionic pretreatment detergent in Table 4 (1.0% H2O2), 30° C., pH 9): 19%
Residual activity of Subtilisin1 after storage (Subtilisin1 [3]; liquid nonionic pretreatment detergent in Table 4 (1.0% H2O2), 37° C., pH 7): 44%
Residual activity of Subtilisin1 after storage (Subtilisin1 [3]; liquid nonionic pretreatment detergent in Table 4 (1.0% H2O2), 37° C., pH 9): 12%
Residual activity of Subtilisin1 after storage (Subtilisin1 [3]; liquid nonionic/anionic laundry detergent in Table 13 (1.0% H2O2), 22° C., pH 7): 84%
Residual activity of Subtilisin1 after storage (Subtilisin1 [3]; liquid nonionic/anionic laundry detergent in Table 13 (1.0% H2O2), 22° C., pH 9): 63%
Residual activity of Subtilisin1 after storage (Subtilisin1 [3]; liquid nonionic/anionic laundry detergent in Table 13 (1.0% H2O2), 30° C., pH 7): 62%
Residual activity of Subtilisin1 after storage (Subtilisin1 [3]; liquid nonionic/anionic laundry detergent in Table 13 (1.0% H2O2), 30° C., pH 9): 34%
Residual activity of Subtilisin1 after storage (Subtilisin1 [3]; liquid nonionic/anionic laundry detergent in Table 13 (1.0% H2O2), 37° C., pH 7): 40%
Residual activity of Subtilisin1 after storage (Subtilisin1 [3]; liquid nonionic/anionic laundry detergent in Table 13 (1.0% H2O2), 37° C., pH 9): 23%
Residual activity of Subtilisin1 after storage (Subtilisin1 [3]; liquid nonionic/anionic pretreatment detergent in Table 10 (1.0% H2O2), 22° C., pH 7): 79%
Residual activity of Subtilisin1 after storage (Subtilisin1 [3]; liquid nonionic/anionic pretreatment detergent in Table 10 (1.0% H2O2), 22° C., pH 9): 57%
Residual activity of Subtilisin1 after storage (Subtilisin1 [3]; liquid nonionic/anionic pretreatment detergent in Table 10 (1.0% H2O2), 30° C., pH 7): 66%
Residual activity of Subtilisin1 after storage (Subtilisin1 [3]; liquid nonionic/anionic pretreatment detergent in Table 10 (1.0% H2O2), 30° C., pH 9): 47%
Residual activity of Subtilisin1 after storage (Subtilisin1 [3]; liquid nonionic/anionic pretreatment detergent in Table 10 (1.0% H2O2), 37° C., pH 7): 52%
Residual activity of Subtilisin1 after storage (Subtilisin1 [3]; liquid nonionic/anionic pretreatment detergent in Table 10 (1.0% H2O2), 37° C., pH 9): 29%
Residual activity of Subtilisin1 after storage (Subtilisin1 [3]; liquid nonionic/anionic pretreatment detergent in Table 16 (2.0% H2O2), 22° C., pH 7): 85%
Residual activity of Subtilisin1 after storage (Subtilisin1 [3]; liquid nonionic/anionic pretreatment detergent in Table 16 (2.0% H2O2), 22° C., pH 9): 30%
Residual activity of Subtilisin1 after storage (Subtilisin1 [3]; liquid nonionic/anionic pretreatment detergent in Table 16 (2.0% H2O2), 30° C., pH 7): 69%
Residual activity of Subtilisin1 after storage (Subtilisin1 [3]; liquid nonionic/anionic pretreatment detergent in Table 16 (2.0% H2O2), 30° C., pH 9): 12%
Residual activity of Subtilisin1 after storage (Subtilisin1 [3]; liquid nonionic/anionic pretreatment detergent in Table 16 (2.0% H2O2), 37° C., pH 7): 50%
Residual activity of Subtilisin1 after storage (Subtilisin1 [3]; liquid nonionic/anionic pretreatment detergent in Table 16 (2.0% H2O2), 37° C., pH 9): 5%
Residual H2O2 after 4 weeks ([4]; liquid peroxide composition in Table 1, 22° C.): 99.0%
Residual H2O2 after 4 weeks ([4]; liquid peroxide composition in Table 1, 30° C.): 98.7%
Residual H2O2 after 4 weeks ([4]; liquid peroxide composition in Table 1, 37° C.): 97.8%
Residual H2O2 (after storage) ([4]; nonionic laundry detergent in Table 7, relative to initially added H2O2 = 1%, 22° C., pH 7): 95%
Residual H2O2 (after storage) ([4]; nonionic laundry detergent in Table 7, relative to initially added H2O2 = 1%, 22° C., pH 9): 95%
Residual H2O2 (after storage) ([4]; nonionic laundry detergent in Table 7, relative to initially added H2O2 = 1%, 30° C., pH 7): 94%
Residual H2O2 (after storage) ([4]; nonionic laundry detergent in Table 7, relative to initially added H2O2 = 1%, 30° C., pH 9): 94%
Residual H2O2 (after storage) ([4]; nonionic laundry detergent in Table 7, relative to initially added H2O2 = 1%, 37° C., pH 7): 92%
Residual H2O2 (after storage) ([4]; nonionic laundry detergent in Table 7, relative to initially added H2O2 = 1%, 37° C., pH 9): 91%
Residual H2O2 (after storage) ([4]; nonionic pretreatment detergent in Table 4, relative to initially added H2O2 = 1%, 22° C., pH 7): ≥100%
Residual H2O2 (after storage) ([4]; nonionic pretreatment detergent in Table 4, relative to initially added H2O2 = 1%, 22° C., pH 9): 93%
Residual H2O2 (after storage) ([4]; nonionic pretreatment detergent in Table 4, relative to initially added H2O2 = 1%, 30° C., pH 7): ≥100%
Residual H2O2 (after storage) ([4]; nonionic pretreatment detergent in Table 4, relative to initially added H2O2 = 1%, 30° C., pH 9): 91%
Residual H2O2 (after storage) ([4]; nonionic pretreatment detergent in Table 4, relative to initially added H2O2 = 1%, 37° C., pH 7): ≥100%
Residual H2O2 (after storage) ([4]; nonionic pretreatment detergent in Table 4, relative to initially added H2O2 = 1%, 37° C., pH 9): 90%
Residual H2O2 (after storage) ([4]; nonionic/anionic laundry detergent in Table 13, relative to initially added H2O2 = 1%, 22° C., pH 7): 101%
Residual H2O2 (after storage) ([4]; nonionic/anionic laundry detergent in Table 13, relative to initially added H2O2 = 1%, 22° C., pH 9): 95%
Residual H2O2 (after storage) ([4]; nonionic/anionic laundry detergent in Table 13, relative to initially added H2O2 = 1%, 30° C., pH 7): 99%
Residual H2O2 (after storage) ([4]; nonionic/anionic laundry detergent in Table 13, relative to initially added H2O2 = 1%, 30° C., pH 9): 92%
Residual H2O2 (after storage) ([4]; nonionic/anionic laundry detergent in Table 13, relative to initially added H2O2 = 1%, 37° C., pH 7): 101%
Residual H2O2 (after storage) ([4]; nonionic/anionic laundry detergent in Table 13, relative to initially added H2O2 = 1%, 37° C., pH 9): 97%
Residual H2O2 (after storage) ([4]; nonionic/anionic pretreatment detergent in Table 10, relative to initially added H2O2 = 1%, 22° C., pH 7): 88%
Residual H2O2 (after storage) ([4]; nonionic/anionic pretreatment detergent in Table 10, relative to initially added H2O2 = 1%, 30° C., pH 7): 86%
Residual H2O2 (after storage) ([4]; nonionic/anionic pretreatment detergent in Table 10, relative to initially added H2O2 = 1%, 37° C., pH 7): 100%
Residual H2O2 (after storage) ([4]; nonionic/anionic pretreatment detergent in Table 10, relative to initially added H2O2 = 1%, 37° C., pH 9): 95%
Residual H2O2 (after storage) ([4]; nonionic/anionic pretreatment detergent in Table 16, relative to initially added H2O2 = 2%, 22° C., pH 7): 87%
Residual H2O2 (after storage) ([4]; nonionic/anionic pretreatment detergent in Table 16, relative to initially added H2O2 = 2%, 30° C., pH 7): 84%
Residual H2O2 (after storage) ([4]; nonionic/anionic pretreatment detergent in Table 16, relative to initially added H2O2 = 2%, 37° C., pH 7): 90%
Residual H2O2 (after storage) ([4]; nonionic/anionic pretreatment detergent in Table 16, relative to initially added H2O2 = 2%, 37° C., pH 9): 92%
